In patent publication US20180273635A1 (Zymeworks, published 2018):
Residue numbers refer to the chain shown, from its start. Names may count otherwise.

B1: Variant 4431 (antibody, name in Kabat numbering, V domains shown)
VH: EVQLVESGGGLVQPGGSLRLSCAASGFTFTDYTMDWVRQAPGKGLEWVADVNPNSGGSIYNQRFKGRFTLSVDRSKNTLYLQMNSLRAEDTAVYYCARNLGPSFYFDYWGQGTLVTVSS
VL: DIQMTQSPSSLSASVGDRVTITCKASQDVSAGVAWYQQKPGKAPKLLIYSASYRYTGVPSRFSGSGSGTDFTLTISSLQPEDFATYYCQQYYIYPYTFGQGTKVEIK
notes: also called literature pertuzumab variant
B2: Variant 4432 (antibody, name in Kabat numbering, V domains shown)
VH: B1 VH
VL: B1 VL with A31I, Y96A
notes: as for B1
B3: Variant 4433 (antibody, name in Kabat numbering, V domains shown)
VH: B1 VH
VL: B1 VL with A31I, Y96F
notes: as for B1
B4: Variant 4434 (antibody, name in Kabat numbering, V domains shown)
VH: B1 VH with T30A
VL: B1 VL with A31I
notes: as for B1
B5: Variant 4435 (antibody, V domains shown)
VH: B1 VH with G57A
VL: B1 VL with A31I
notes: as for B1
B6: Variant 4436 (antibody, name in Kabat numbering, V domains shown)
VH: B1 VH with F64V
VL: B1 VL with A31I
notes: as for B1
B7: variant 10014 (antibody)
heavy: EVQLVESGGGLVQPGGSLRLSCAASGFTFADYTMDWVRQAPGKGLEWVADVNPNSGGSIYNQRFKGRFTLSVDRSKNTLYLQMNSLRAEDTAVYYCARNLGPSFYFDYWGQGTLVTVSSASTKGPSVFPLAPSSKSTSGGTAALGCLVKDYFPEPVTVSWNSGALTSGVHTFPAVLQSSGLYSLSSVVTVPSSSLGTQTYICNVNHKPSNTKVDKKVEPKSCDKTHTCPPCPAPELLGGPSVFLFPPKPKDTLMISRTPEVTCVVVDVSHEDPEVKFNWYVDGVEVHNAKTKPREEQYNSTYRVVSVLTVLHQDWLNGKEYKCKVSNKALPAPIEKTISKAKGQPREPQVYVYPPSRDELTKNQVSLTCLVKGFYPSDIAVEWESNGQPENNYKTTPPVLDSDGSFALVSKLTVDKSRWQQGNVFSCSVMHEALHNHYTQKSLSLSPG
light: not shown
Fc: not shown
notes: OA format; combines the mutations of 12610 and 12611; also called v10014
B8: variant 12529 (antibody, human IgG1, kappa)
heavy: B7 heavy with A30T
light: not shown
chain: not shown
notes: also called v12529
B9: variant 12533 (antibody, human IgG1, kappa)
heavy: B7 heavy with A30T
light: DIQMTQSPSSLSASVGDRVTITCKASQDVSIGVAWYQQKPGKAPKLLIYSASYRYTGVPSRFSGSGSGTDFTLTISSLQPEDFATYYCQQYYIYPAAFGQGTKVEIKRTVAAPSVFIFPPSDEQLKSGTASVVCLLNNFYPREAKVQWKVDNALQSGNSQESVTEQDSKDSTYSLSSTLTLSKADYEKHKVYACEVTHQGLSSPVTKSFNRGEC
chain: not shown
notes: also called v12533
B10: variant 12534 (antibody, human IgG1, kappa)
heavy: B7 heavy with F64V
light: not shown
chain: not shown
notes: also called v12534
B11: variant 12610 (antibody, human IgG1, kappa)
heavy: B7 heavy
light: not shown
chain: not shown
notes: OA pertuzumab variant, HC T30A (Kabat); also called v12610
B12: variant 12611 (antibody, human IgG1, kappa)
heavy: B7 heavy with A30T
light: not shown
chain: not shown
notes: OA pertuzumab variant, LC Y96A (Kabat); also called v12611
B13: Variant 14024 (antibody, human IgG1, kappa)
heavy: B7 heavy with A30T, K76W
light: not shown
chain: not shown
notes: OA (one-armed) format; clones 7844, 7919, 4372; also called v14024
B14: Variant 14025 (antibody, human IgG1, kappa)
heavy: B7 heavy with A30Q, K76W
light: not shown
chain: not shown
notes: OA (one-armed) format; clones 8775, 1811, 4372; also called v14025
B15: Variant 14032 (antibody, human IgG1, kappa)
heavy: B7 heavy with A30Q, S103W
light: not shown
chain: not shown
notes: OA (one-armed) format; clones 8780, 1811, 4372; also called v14032
B16: Variant 14043 (antibody, human IgG1, kappa)
heavy: B7 heavy with A30Q, K76W
light: not shown
chain: not shown
notes: OA (one-armed) format; clones 8775, 7919, 4372; also called v14043
B17: Variant 14050 (antibody, human IgG1, kappa)
heavy: B7 heavy with A30Q, S103W
light: not shown
chain: not shown
notes: OA (one-armed) format; clones 8780, 7919, 4372; also called v14050
B18: Variant 14055 (antibody, human IgG1, kappa)
heavy: B7 heavy with A30Q, K76W, S103W
light: not shown
chain: not shown
notes: OA (one-armed) format; clones 8784, 7919, 4372; also called v14055
B19: Variant 10014 (antibody)
heavy: B7 heavy
light: not shown
Fc: not shown
notes: Fc substitutions are in EU numbering; also called v10014

The binders below were run against T1, Recombinant human HER2 (human, UniProt P04626 23-652) (assay: SPR, Ka ratio to WT pertuzumab).
T1 construct: extracellular domain; Analyte of the SPR assays; also called HER2 ECD; ECD2 of HER2
Method: (§1) The affinity towards HER2 ECD of the samples was measured by SPR on a Biacore T200 as follows. Between 2000 and 4000 RU of anti-human Fc injected at concentration between 5 and 10 μg/ml was immobilized on a CM5 chip using standard amine coupling. Antigen-binding constructs were captured on the anti-human Fc (injected at concentration at 0.51 microg/mL in PBST, 1 min at 10 microl/min) at response levels ranging from 120-270 RU. […] HER2 dilutions were analyzed in duplicates. Sensograms were fit globally to a 1: 1 Langmuir binding model, using the software provided with the Biacore T200. All experiments were conducted at 25° C.
B1 was tested, and the “SPR Ka, mut/Ka, WT” value was 3.9 fold. For B2, the “SPR Ka, mut/Ka, WT” value was 1.7 fold. With B3 the “SPR Ka, mut/Ka, WT” value was 1.3 fold. With B4 the “SPR Ka, mut/Ka, WT” value was 3.3 fold. In the case of B5, the “SPR Ka, mut/Ka, WT” value is reported as 0.9 fold. In the case of B6, the “SPR Ka, mut/Ka, WT” value is reported as 2.4 fold.

Each binder was assayed against T2, Recombinant human HER2 (human, UniProt P04626 23-652) (assay: SPR, pre-SEC; ratio to WT v10013).
T2 construct: extracellular domain; analyte of the SPR assays; also called HER2 ECD; ECD2 of HER2
Method: as §1
(§2) The affinity of antigen-binding constructs in OA format was determined by SPR following protein A purification. […] Antigen-binding constructs in FSA format were purified by protein A affinity and SEC prior to assessment of affinity by SPR.
B7 was tested, and the “Ka, mut/Ka, WT” value was 7.9. For B8, the “Ka, mut/Ka, WT” value was 2.1. In the case of B9, the “Ka, mut/Ka, WT” value is reported as 3.2. B10 was tested, and the “Ka, mut/Ka, WT” value was 8.3. With B11 the “Ka, mut/Ka, WT” value was 3.9. For B12, the “Ka, mut/Ka, WT” value was 1.8.

These binders were tested against T1, Recombinant human HER2 (assay: SPR, 25 C; Ka ratio to WT v10013;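 note: constructs captured via anti-human Fc on CM5 chip, HER2 ECD as analyte in duplicate dilutions, sensorgrams globally fit to 1:1 Langmuir model on Biacore T200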).
Method: as §1
For B13, the “Ka, mut/Ka, WT” value was about 67 fold. In the case of B14, the “Ka, mut/Ka, WT” value is reported as about 41 fold. B15 was tested, and the “Ka, mut/Ka, WT” value was 21 fold. B16 was tested, and the “Ka, mut/Ka, WT” value was about 102 fold. For B17, the “Ka, mut/Ka, WT” value was 12 fold. B18 was tested, and the “Ka, mut/Ka, WT” value was about 77 fold.

What follows are binders tested against T2, Recombinant human HER2 (assay: SPR, post-SEC; ratio to WT v10013).
Method: as §1, §2
B7 was tested, and the “Ka, mut/Ka, WT” value was 8. B8 was tested, and the “Ka, mut/Ka, WT” value was 2.3. In the case of B9, the “Ka, mut/Ka, WT” value is reported as 2.9. For B10, the “Ka, mut/Ka, WT” value was 7.4. For B11, the “Ka, mut/Ka, WT” value was 4.5. With B12 the “Ka, mut/Ka, WT” value was 1.8.

What follows are binders tested against T1, Recombinant human HER2 (assay: calculated from the SPR Ka ratio to WT v10013;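 note: SPR at 25 °C with constructs captured on an anti-human Fc chip and HER2 extracellular domain as analyte, kinetics fitted to a 1:1 Langmuir model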).
A ΔΔG of -2.5 kcal/mol was found for B13 in this work. A ΔΔG of -2.2 kcal/mol was found for B14 in this work. A ΔΔG of -1.8 kcal/mol was found for B15 in this work. A ΔΔG of -2.7 kcal/mol was found for B16 in this work. A ΔΔG of -1.5 kcal/mol was found for B17 in this work. A ΔΔG of -2.6 kcal/mol was found for B18 in this work.

The binders below were run against T1, Recombinant human HER2 (assay: SPR as in Example 3, average of three independent runs).
Method: as §1
A Kd of 5 nM was found for B1 in this work. A Kd of 7.7 nM was found for B2 in this work. A Kd of 10 nM was found for B3 in this work. A Kd of 4 nM was found for B4 in this work. A Kd of 15 nM was found for B5 in this work. A Kd of 5.7 nM was found for B6 in this work.

What follows are binders tested against T1, Recombinant human HER2 (assay: SPR at 25 C of the OA variant, equilibrium association constant).
Method: as §1
A Ka of 4.7e+08 M⁻¹ was found for B19 in this work. A Ka of 4e+09 M⁻¹ was found for B13 in this work. A Ka of 2.5e+09 M⁻¹ was found for B14 in this work. A Ka of 1.3e+09 M⁻¹ was found for B15 in this work. A Ka of 5.3e+09 M⁻¹ was found for B16 in this work. A Ka of 6.2e+08 M⁻¹ was found for B17 in this work. A Ka of 4.7e+09 M⁻¹ was found for B18 in this work.

Biological target: T1, Recombinant human HER2
Assay: as above
Remark: another data set of the same source
Method: as §1
A Ka of 4.7e+08 M⁻¹ was found for B19 in this work. A Ka of 4e+09 M⁻¹ was found for B13 in this work. A Ka of 2.5e+09 M⁻¹ was found for B14 in this work. A Ka of 1.3e+09 M⁻¹ was found for B15 in this work. A Ka of 5.3e+09 M⁻¹ was found for B16 in this work. A Ka of 6.2e+08 M⁻¹ was found for B17 in this work. A Ka of 4.7e+09 M⁻¹ was found for B18 in this work.

Each binder was assayed against T2, Recombinant human HER2 (assay: SPR, variant captured on anti-human Fc, HER2 flowed, 25 C, pre-SEC).
Method: as §1
A Kd of 2.5 nM was found for B7 in this work. A Kd of 9.2 nM was found for B8 in this work. A Kd of 6.2 nM was found for B9 in this work. A Kd of 2.4 nM was found for B10 in this work. A Kd of 5.1 nM was found for B11 in this work. A Kd of 11 nM was found for B12 in this work.

Each binder was assayed against T2, Recombinant human HER2 (assay: SPR, variant captured on anti-human Fc, HER2 flowed, 25 C, post-SEC).
Method: as §1, §2
A Kd of 2.6 nM was found for B7 in this work. A Kd of 9 nM was found for B8 in this work. A Kd of 7.2 nM was found for B9 in this work. A Kd of 2.8 nM was found for B10 in this work. A Kd of 4.6 nM was found for B11 in this work. A Kd of 11 nM was found for B12 in this work.

What follows are binders tested against T1, Recombinant human HER2 (assay: SPR at 25 C of the OA variant, logarithm of the association constant).
Method: as §1
In the case of B19, the “Log Ka” value is reported as 8.7. For B13, the “Log Ka” value was 9.6. For B14, the “Log Ka” value was 9.4. With B15 the “Log Ka” value was 9.1. With B16 the “Log Ka” value was 9.7. With B17 the “Log Ka” value was 8.8. In the case of B18, the “Log Ka” value is reported as 9.7.

Biological target: T1, Recombinant human HER2
Assay: as above
Remark: another data set of the same source
Method: as §1
B19 was tested, and the “Log Ka” value was 8.7. For B13, the “Log Ka” value was 9.6. For B14, the “Log Ka” value was 9.4. For B15, the “Log Ka” value was 9.1. For B16, the “Log Ka” value was 9.7. For B17, the “Log Ka” value was 8.8. With B18 the “Log Ka” value was 9.7.

Each binder was assayed against T1, Recombinant human HER2 (assay: SPR, Biacore T200, 25 C; variant captured on anti-human Fc, HER2 flowed;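 note: HER2 extracellular domain analyte run as duplicate dilutions over amine-coupled anti-Fc on a CM5 chip, rates from global sensorgram fitting with a 1:1 Langmuir model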).
A Kd of about 0.25 nM, a koff of about 2.1e-05 s⁻¹ and a kon of 85000 M⁻¹ s⁻¹ were found for B13 in this work. A Kd of about 0.4 nM, a koff of about 2.6e-05 s⁻¹ and a kon of 65000 M⁻¹ s⁻¹ were found for B14 in this work. A Kd of 0.79 nM, a koff of 3.9e-05 s⁻¹ and a kon of 49000 M⁻¹ s⁻¹ were found for B15 in this work. A Kd of about 0.19 nM, a koff of about 1.4e-05 s⁻¹ and a kon of 73000 M⁻¹ s⁻¹ were found for B16 in this work. A Kd of 1.6 nM, a koff of 7.4e-05 s⁻¹ and a kon of 46000 M⁻¹ s⁻¹ were found for B17 in this work. A Kd of about 0.21 nM, a koff of about 1.6e-05 s⁻¹ and a kon of 73000 M⁻¹ s⁻¹ were found for B18 in this work.
